Source: patent publication US20120213809A1

Assays:
[1] = molecular target: CCR7 on T2 hybridoma cells; assay: cell-based or functional assay
[2] = molecular target: CP-MVP recombinant vaults (rat MVP generated in Sf9 cells) (rat) (UniProt Q62667); assay: densitometry of Coomassie stained SDS-PAGE gels of purified vault complexes
Chain of UniProt Q62667 (Q62667 2-861 limits assumed): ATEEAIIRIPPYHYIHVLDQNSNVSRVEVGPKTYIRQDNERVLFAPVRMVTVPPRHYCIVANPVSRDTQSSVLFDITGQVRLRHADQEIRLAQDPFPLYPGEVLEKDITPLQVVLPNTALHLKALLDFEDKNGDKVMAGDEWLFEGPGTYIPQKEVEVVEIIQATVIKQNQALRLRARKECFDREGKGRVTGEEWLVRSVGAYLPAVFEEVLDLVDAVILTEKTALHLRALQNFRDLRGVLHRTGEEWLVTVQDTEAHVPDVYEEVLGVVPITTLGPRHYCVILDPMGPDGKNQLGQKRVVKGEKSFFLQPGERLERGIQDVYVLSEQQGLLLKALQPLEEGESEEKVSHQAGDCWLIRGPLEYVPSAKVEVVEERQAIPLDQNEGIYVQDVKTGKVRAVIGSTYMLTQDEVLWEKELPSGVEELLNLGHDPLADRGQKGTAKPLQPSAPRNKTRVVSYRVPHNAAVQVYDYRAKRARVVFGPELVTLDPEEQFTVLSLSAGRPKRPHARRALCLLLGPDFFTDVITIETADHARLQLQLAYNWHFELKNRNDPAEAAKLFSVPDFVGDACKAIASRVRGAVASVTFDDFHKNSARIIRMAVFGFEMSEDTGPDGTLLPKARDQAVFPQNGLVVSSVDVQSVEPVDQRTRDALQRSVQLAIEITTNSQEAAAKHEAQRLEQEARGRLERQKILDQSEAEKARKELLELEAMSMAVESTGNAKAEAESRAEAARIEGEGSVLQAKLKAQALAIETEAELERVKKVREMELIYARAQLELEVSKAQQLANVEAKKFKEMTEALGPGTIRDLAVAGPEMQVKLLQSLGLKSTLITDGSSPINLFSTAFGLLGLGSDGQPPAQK

Chain of CCL-21 vault complex (CP-MVP vaults with packaged mouse CCL-21-mCherry-mINT) (chain): as the sequence (Q62667 2-861 limits assumed) above
Chain of CCL-21 vault complex (CP-MVP vaults with packaged mouse CCL-21-mCherry-mINT) (chain, part): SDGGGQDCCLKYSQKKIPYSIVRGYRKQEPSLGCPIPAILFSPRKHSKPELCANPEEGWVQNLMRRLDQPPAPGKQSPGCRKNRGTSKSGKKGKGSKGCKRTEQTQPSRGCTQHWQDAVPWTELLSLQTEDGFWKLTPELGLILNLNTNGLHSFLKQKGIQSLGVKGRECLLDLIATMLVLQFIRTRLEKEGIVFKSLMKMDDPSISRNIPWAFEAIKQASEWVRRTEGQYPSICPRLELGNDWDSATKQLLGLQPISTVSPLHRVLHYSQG

Row | % migration of T2 cells (dual-chamber chemotaxis assay) [1] [%] | molecules of CCL-21-mINT protein per vault complex (molecules per vault complex) [2] | Substance
1 | > 7.5 |  | CCL-21 vault complex (CP-MVP vaults with packaged mouse CCL-21-mCherry-mINT)
2 |  | 20 to 30 | mouse CCL-21-mCherry-mINT fusion protein
3 | < 2.5 |  | recombinant CCL-21 (R&D Systems) (ligand)
